According to publication PMC12702776, “New insights into the classification of the RAC1 P29S hotspot mutation in melanoma as an oncogene” (Cancer Gene Therapy, 2025):

Molecular target: RAC1^P29S, purified (human, UniProt P63000 1-192, P29S)
Assay: stopped-flow fluorimetry; mGppNHp-bound RAC1 with varying concentrations of His-IQGAP1 C794; kon, koff, Kd = koff/kon
Conditions: both partners purified

fold higher binding affinity than that of PAK1 for RAC1^P29S: 30 fold
B1: His-IQGAP1 C794 (C-terminal 794 amino acids of IQ motif-containing GTPase-activating protein 1) (domain or fragment)
chain: PPMVVVRKFVHLLDQSDQDFQEELDLMKMREEVITLIRSNQQLENDLNLMDIKIGLLVKNKITLQDVVSHSKKLTKKNKEQLSDMMMINKQKGGLKALSKEKREKLEAYQHLFYLLQTNPTYLAKLIFQMPQNKSTKFMDSVIFTLYNYASNQREEYLLLRLFKTALQEEIKSKVDQIQEIVTGNPTVIKMVVSFNRGARGQNALRQILAPVVKEIMDDKSLNIKTDPVDIYKSWVNQMESQTGEASKLPYDVTPEQALAHEEVKTRLDSSIRNMRAVTDKFLSAIVSSVDKIPYGMRFIAKVLKDSLHEKFPDAGEDELLKIIGNLLYYRYMNPAIVAPDAFDIIDLSAGGQLTTDQRRNLGSIAKMLQHAASNKMFLGDNAHLSIINEYLSQSYQKFRRFFQTACDVPELQDKFNVDEYSDLVTLTKPVIYISIGEIINTHTLLLDHQDAIAPEHNDPIHELLDDLGEVPTIESLIGESSGNLNDPNKEALAKTEVSLTLTNKFDVPGDENAEMDARTILLNTKRLIVDVIRFQPGETLTEILETPATSEQEAEHQRAMQRRAIRDAKTPDKMKKSKSVKEDSNLTLQEKKEKIQTGLKKLTELGTVDPKNKYQELINDIARDIRNQRRYRQRRKAELVKLQQTYAALNSKATFYGEQVDYYKSYIKTCLDNLASKGKVSKKPREMKGKKSKKISLKYTAARLHEKGVLLEIEDLQVNQFKNVIFEISPTEEVGDFEVKAKFMGVQMETFMLHYQDLLQLQYEGVAVMKLFDRAKVNVNLLIFLLNKKFYGK
notes: neither is stated here
